Paper PMC5979959

Biological target: human DNAJB6, cytosolic isoform B (human) (UniProt O75190)
Assay: native gel or EMSA + other: negative stain electron microscopy; DNAJB6 oligomers fractionated by GraFix (5-30% sucrose, 0-0.2% glutaraldehyde gradient, 20 mM NaPO4, 150 mM NaCl, pH 8.0, 4 °C); fraction 5 analysed by blue native-PAGE and negative stain EM with single particle reconstruction

Sequence of human DNAJB6, cytosolic isoform B, O75190-2 1-241 (natural protein; other documents disagree on this pair) (O75190 other isoform, or with tags, fused parts or gaps): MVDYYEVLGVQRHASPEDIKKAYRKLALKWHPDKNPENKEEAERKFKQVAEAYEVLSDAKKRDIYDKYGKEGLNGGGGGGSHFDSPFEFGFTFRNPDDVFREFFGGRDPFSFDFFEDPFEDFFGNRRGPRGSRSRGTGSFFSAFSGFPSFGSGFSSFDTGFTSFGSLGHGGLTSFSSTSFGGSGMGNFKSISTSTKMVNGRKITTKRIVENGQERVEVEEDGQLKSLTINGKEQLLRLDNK

stoichiometry N: 20 subunits
Substance: human DNAJB6, cytosolic isoform B, O75190-2 1-241 (natural protein; other documents disagree on this pair)
